From article PMC12057666 (Science Advances, 2025)

B1: Es1.327 IgG antibody (antibody, V domains shown)
VH: QVQLVQSGGEVKKPGASVRVSCQTSGYSFTHYSITWVRQAPGQGLEWMGWITTYNGKTSYAQKFQDRVTMTADTSSRTAYVELRSLRSDDTAVYYCVRVWTGYGTNRGDYWGQGTLVTVSS
VL: PSSLYASVGDRVTITCRASQSINTFLNWYQQKPGNAPKLLIHAASTLESGVPSRFSGSGSGTDFTLTISSLQPEDFATYYCQQSDNNFALTFGGGTKVEIR
notes: source: Freestyle 293-F, transient cotransfection, purified (Protein G Sepharose 4 Fast Flow)
B2: Es5.127 IgG antibody (antibody, V domains shown)
VH: EVQLVQSGAEVKKPGESLKISCKGSGYRSGYSFSSYWIGWVRQRPGKGLEWMGIIQPGDSDTTYSPSFQGQVTISADKSINTAYLQWSSLKASDTAIYYCARVRGSLKVPAAVPFDPWGQGTLVTVSS
VL: QSVLTQPPSVSAAPGQKVTISCSGSSSNIGNNYVSWYQQFPGIAPKLLIYDNNKRPSGIPDRFSGSKSGTSATLGITGLQTGDEADYYCGTWDSSLSDVVFGGGTKLTVL
notes: as for B1
B3: Es4.431 IgG antibody (antibody, V domains shown)
VH: EVQLLESGGGLVQPGGSLRLSCTASGFTFDTHVMSWVRQGPGKGLEWVSSISAASGTYYAGSVKGRFTISRDNSKNTLFLHMNSLRVEDTGVYYCANVVHRCTTNTCFRGADNWGQGTLVTVSS
VL: PSSLSASVGDRVTITCRASQSVDTYLNWYQQKPGETPKLLIYAASTLQSGVPSRFSGSGSGTTFTLTISSLQPEDFATYYCQQSYTTLMYTFGQGTKLEIK
notes: as for B1

Columns and labels:
Conditions in all cases: both partners purified
[1] = target: T1, HEV-P, wild-type HEV-CA P domain protein, ORF2(455-601), genotype 3, 2712 strain (hepatitis E virus genotype 3, strain …, UniProt Q9YLQ9); test: ELISA; plates coated overnight with 125 ng per well of purified protein; serial dilutions of monoclonal antibodies in PBS, 2 hours; HRP anti-human IgG
T1 construct: source: Freestyle 293-F, transient transfection (PEI), purified from culture supernatant (Ni Sepharose Excel)
T1 sequence (Q9YLQ9 455-601): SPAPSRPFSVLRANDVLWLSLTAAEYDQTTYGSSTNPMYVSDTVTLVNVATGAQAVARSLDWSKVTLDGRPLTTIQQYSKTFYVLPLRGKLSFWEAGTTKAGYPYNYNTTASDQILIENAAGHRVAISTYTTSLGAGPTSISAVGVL

[2] = target: T2, genotype 1d HEV-CA protein (1d Morocco) (Hepatitis E virus genotype 1d, Morocco, …, UniProt Q9W7W9, strain); test: SPR; Biacore 2000; purified IgG (10 μg/ml) captured on Protein G sensor chip; capsid proteins injected at 5 or 10 to 0.312 nM; HBS-EP (10 mM Hepes pH 7.2, 150 mM NaCl, 3 mM EDTA, 0.005% Tween 20); 22°C; Langmuir model, global analysis; apparent affinity
T2 construct: hepatitis E virus capsid protein (ORF2), genotype 1d, strain Morocco; the 3-2712 HEV-CA construct of the same list is ORF2 126-601; Igk leader at the N terminus of the construct; also called genotype 1 HEV-CA; source: Freestyle 293-F, transient transfection (PEI), purified from culture supernatant (Ni Sepharose Excel)

[3] = target: T3, HEV-C1 capsid protein (Rocahepevirus, rat hepatitis E virus) (Rocahepevirus (rat hepatitis E virus …, UniProt E0XL23, strain)); test: as above
T3 construct: capsid protein (ORF2) of Rocahepevirus HEV-C1 (rat hepatitis E virus); Igk leader at the N terminus of the construct; also called HEV-C1 protein; Rocahepevirus CA; source: Freestyle 293-F, transient transfection (PEI), purified from culture supernatant (Ni Sepharose Excel)

[4] = target: T4, genotype 3a HEV-CA protein (3a Meng) (Hepatitis E virus genotype 3a, swine …, UniProt Q6J8F7, strain); test: as above
T4 construct: also called genotype 3 HEV-CA; source: Freestyle 293-F, transient transfection (PEI), purified from culture supernatant (Ni Sepharose Excel)

Row | Binder | binding result [1] | binding result [2] | Kd [3] [nM] | Kd [4] [nM]
1 | B1 | binds |  |  | 
2 | B2 |  | binds | 1.6 | 0.41
3 | B3 | binds |  |  | 
